These results are taken from the supplement of paper PMC9112550, “Optimization of the antimicrobial peptide Bac7 by deep mutational scanning” (BMC Biology, 2022).

The test system of this data set is Escherichia coli TOP10. Description: shrunken log2 fold change of peptide-encoding DNA abundance (4.5 h post-induction vs induction); higher = less antimicrobial activity (less host growth inhibition). The note with it: time post-induction: 4.5 h; library: site-saturation at positions 5, 18, 19, 20.
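Also: peptides expressed intracellularly from a pBAD plasmid library in pooled LB shake-flask culture, induced with 0.3% L-arabinose, DNA abundance read by NGS, three biological replicates, DESeq2 with apeglm shrinkage.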

As for RRIRLRPPRLPRPRPRPWTEPRP, the “shrunken log2 fold change” value is -0.01.
To RRIRNRPPRLPRPRPRPDLGPRP belongs 0.0328.
With RRIRKRPPRLPRPRPRPFLSPRP, the “shrunken log2 fold change” value was -0.0256.
To RRIRNRPPRLPRPRPRPVVHPRP belongs -0.165; to RRIRMRPPRLPRPRPRPQYSPRP, 0.0353.
To RRIRDRPPRLPRPRPRPFVMPRP belongs 0.0243.
To RRIRYRPPRLPRPRPRPAVSPRP belongs 0.0627.
Regarding RRIRDRPPRLPRPRPRPSEVPRP, the “shrunken log2 fold change” value was 0.561.
Regarding RRIRPRPPRLPRPRPRPNGVPRP, the “shrunken log2 fold change” value was -0.0233.
Consider RRIRDRPPRLPRPRPRPDFHPRP, for which the “shrunken log2 fold change” value is -0.139.
To RRIRTRPPRLPRPRPRPKAHPRP belongs 0.182; to RRIRCRPPRLPRPRPRPILEPRP, -0.247.
RRIRYRPPRLPRPRPRPVAAPRP: the “shrunken log2 fold change” value came to 0.149.
Take RRIRKRPPRLPRPRPRPQILPRP: the “shrunken log2 fold change” value is -0.144.
The figure for RRIRFRPPRLPRPRPRPALYPRP is -0.155; for RRIRQRPPRLPRPRPRPWSHPRP it is -0.105; for RRIRERPPRLPRPRPRPLDPPRP it is -0.102.
For RRIRMRPPRLPRPRPRPWSKPRP, the “shrunken log2 fold change” value came out at 0.0409.
To RRIRYRPPRLPRPRPRPEVRPRP belongs -0.187; to RRIRCRPPRLPRPRPRPKPNPRP, 0.572; to RRIRCRPPRLPRPRPRPAGHPRP, 0.0641.
For RRIRLRPPRLPRPRPRPYEWPRP, the “shrunken log2 fold change” value is -0.00151.
Turning to RRIRVRPPRLPRPRPRPTHIPRP, the “shrunken log2 fold change” value was determined as 0.268.
To RRIRVRPPRLPRPRPRPRWYPRP belongs -0.232; to RRIRNRPPRLPRPRPRPKMEPRP, 0.015; to RRIRERPPRLPRPRPRPTSRPRP, 0.249.
To RRIRNRPPRLPRPRPRPVKFPRP belongs -0.0271; to RRIRERPPRLPRPRPRPVGSPRP, -0.174; to RRIRRRPPRLPRPRPRPQTDPRP, 0.13.
For the sequence RRIRERPPRLPRPRPRPREFPRP, the “shrunken log2 fold change” value is -0.0736.
To RRIRTRPPRLPRPRPRPLCYPRP belongs -0.452; to RRIRQRPPRLPRPRPRPWCYPRP, -0.466.
With RRIRYRPPRLPRPRPRPHVVPRP, the “shrunken log2 fold change” value is -0.261.
The figure for RRIRWRPPRLPRPRPRPQRPPRP is -0.00892.
The figure for RRIRYRPPRLPRPRPRPVRYPRP is -0.157; for RRIRLRPPRLPRPRPRPAEMPRP it is -0.111.
The figure for RRIRVRPPRLPRPRPRPPFKPRP is 0.163.
Consider RRIRFRPPRLPRPRPRPARLPRP, for which the “shrunken log2 fold change” value was 0.175.
To RRIRTRPPRLPRPRPRPVGGPRP belongs 0.837; to RRIRIRPPRLPRPRPRPTQNPRP, 0.19.
In the case of RRIRQRPPRLPRPRPRPEQNPRP, the “shrunken log2 fold change” value is -0.012.
The figure for RRIRTRPPRLPRPRPRPFHNPRP is -0.31.
For RRIRVRPPRLPRPRPRPARVPRP, the “shrunken log2 fold change” value is 0.263.
The figure for RRIRVRPPRLPRPRPRPLGIPRP is -0.105; for RRIRSRPPRLPRPRPRPEVKPRP it is 0.287; for RRIRPRPPRLPRPRPRPMGNPRP it is -0.0876.
To RRIRVRPPRLPRPRPRPTVYPRP belongs -0.0885; to RRIRQRPPRLPRPRPRPFVCPRP, -0.0472.
The figure for RRIRMRPPRLPRPRPRPLFCPRP is 0.188; for RRIRPRPPRLPRPRPRPQRHPRP it is -0.14.
As for RRIRARPPRLPRPRPRPSKRPRP, the “shrunken log2 fold change” value was determined as 0.0155.
On to RRIRFRPPRLPRPRPRPVHIPRP, for which the “shrunken log2 fold change” value is 0.0681.
The figure for RRIRERPPRLPRPRPRPNWKPRP is -0.0166.
For the sequence RRIRTRPPRLPRPRPRPCCGPRP, the “shrunken log2 fold change” value was 0.635.
Take RRIRERPPRLPRPRPRPTQFPRP: the “shrunken log2 fold change” value was -0.118.
For the sequence RRIRKRPPRLPRPRPRPPVVPRP, the “shrunken log2 fold change” value came out at 0.453.
As for RRIRERPPRLPRPRPRPKIMPRP, the “shrunken log2 fold change” value is -1.24.
To RRIRERPPRLPRPRPRPRTVPRP belongs 0.0995.
Turning to RRIRYRPPRLPRPRPRPPPRPRP, the “shrunken log2 fold change” value was determined as 1.5.
For the sequence RRIRPRPPRLPRPRPRPNDHPRP, the “shrunken log2 fold change” value was -0.386.
The figure for RRIRWRPPRLPRPRPRPNDNPRP is -0.425; for RRIRIRPPRLPRPRPRPEGFPRP it is -0.321; for RRIRLRPPRLPRPRPRPVENPRP it is -0.209.
The figure for RRIRVRPPRLPRPRPRPQYKPRP is -0.527.
In the case of RRIRSRPPRLPRPRPRPTEIPRP, the “shrunken log2 fold change” value was -0.0163.
As for RRIRPRPPRLPRPRPRPSNWPRP, the “shrunken log2 fold change” value was -0.184.
The figure for RRIRFRPPRLPRPRPRPAMMPRP is 0.0488; for RRIRGRPPRLPRPRPRPYEQPRP it is -0.157.
In the case of RRIRVRPPRLPRPRPRPTSFPRP, the “shrunken log2 fold change” value is -0.0728.
The figure for RRIRMRPPRLPRPRPRPPAHPRP is 0.721.
As for RRIRDRPPRLPRPRPRPTWVPRP, the “shrunken log2 fold change” value worked out at 0.323.
To RRIRFRPPRLPRPRPRPVEFPRP belongs -0.591; to RRIRIRPPRLPRPRPRPYDLPRP, -0.427; to RRIRSRPPRLPRPRPRPRWWPRP, 1.26.
For RRIRLRPPRLPRPRPRPAIKPRP, the “shrunken log2 fold change” value was -0.139.
To RRIRRRPPRLPRPRPRPKEVPRP belongs 0.195; to RRIRPRPPRLPRPRPRPHRMPRP, -0.465.
For RRIRGRPPRLPRPRPRPAEMPRP, the “shrunken log2 fold change” value came out at 0.621.
With RRIRVRPPRLPRPRPRPDLDPRP, the “shrunken log2 fold change” value turned out to be 0.156.
As to RRIRDRPPRLPRPRPRPSDQPRP, the “shrunken log2 fold change” value was 0.204.
On to RRIRGRPPRLPRPRPRPLFRPRP, for which the “shrunken log2 fold change” value amounted to 0.444.
Take RRIRDRPPRLPRPRPRPQVDPRP: the “shrunken log2 fold change” value was -0.0156.
For the sequence RRIRMRPPRLPRPRPRPWYAPRP, the “shrunken log2 fold change” value was -0.475.
The figure for RRIRFRPPRLPRPRPRPKPAPRP is 0.739; for RRIRVRPPRLPRPRPRPWWDPRP it is 0.00445.
For the sequence RRIRLRPPRLPRPRPRPYLTPRP, the “shrunken log2 fold change” value was -0.663.
The figure for RRIRPRPPRLPRPRPRPRGEPRP is 0.646; for RRIRLRPPRLPRPRPRPRWSPRP it is 0.129.
To RRIRCRPPRLPRPRPRPTPHPRP belongs 0.821.
As for RRIRGRPPRLPRPRPRPENQPRP, the “shrunken log2 fold change” value stood at 0.534.
For the sequence RRIRMRPPRLPRPRPRPRLMPRP, the “shrunken log2 fold change” value was -0.0423.
To RRIRQRPPRLPRPRPRPKESPRP belongs 0.0355.
The figure for RRIRMRPPRLPRPRPRPEECPRP is 0.0665; for RRIRIRPPRLPRPRPRPSAYPRP it is -0.138.
The figure for RRIRLRPPRLPRPRPRPGDCPRP is 0.0644; for RRIRRRPPRLPRPRPRPWMLPRP it is 0.227; for RRIRIRPPRLPRPRPRPHLYPRP it is -0.241.
As for RRIRMRPPRLPRPRPRPITVPRP, the “shrunken log2 fold change” value came out at 0.0226.
To RRIRYRPPRLPRPRPRPCTFPRP belongs -0.208.
RRIRMRPPRLPRPRPRPVWNPRP: the “shrunken log2 fold change” value was -0.0831.
With RRIRYRPPRLPRPRPRPNQMPRP, the “shrunken log2 fold change” value was -0.194.
The figure for RRIRARPPRLPRPRPRPCLKPRP is -0.0264.
The figure for RRIRGRPPRLPRPRPRPWRMPRP is -0.000462; for RRIRQRPPRLPRPRPRPNVVPRP it is 0.0298; for RRIRYRPPRLPRPRPRPSCCPRP it is -0.472.
To RRIRRRPPRLPRPRPRPSTFPRP belongs -0.02; to RRIRQRPPRLPRPRPRPKREPRP, 0.119.
Regarding RRIRFRPPRLPRPRPRPTTCPRP, the “shrunken log2 fold change” value is -0.19.
RRIRGRPPRLPRPRPRPGWGPRP: the “shrunken log2 fold change” value is 0.73.
The figure for RRIRERPPRLPRPRPRPRRQPRP is 0.00864; for RRIRHRPPRLPRPRPRPAIHPRP it is -0.303.
With RRIRERPPRLPRPRPRPNVTPRP, the “shrunken log2 fold change” value was -0.199.
The figure for RRIRMRPPRLPRPRPRPPPSPRP is 1.95; for RRIRLRPPRLPRPRPRPWSDPRP it is -0.188; for RRIRDRPPRLPRPRPRPQSSPRP it is 0.0176.
Regarding RRIRGRPPRLPRPRPRPEPQPRP, the “shrunken log2 fold change” value turned out to be 1.41.
Turning to RRIRMRPPRLPRPRPRPYLFPRP, the “shrunken log2 fold change” value is -0.0192.
To RRIRQRPPRLPRPRPRPCWVPRP belongs -0.0437; to RRIRDRPPRLPRPRPRPMNIPRP, -0.0931.
To RRIRERPPRLPRPRPRPWMHPRP belongs -0.126; to RRIRRRPPRLPRPRPRPFFLPRP, 0.0467; to RRIRPRPPRLPRPRPRPEVTPRP, 0.198.
In the case of RRIRCRPPRLPRPRPRPGYCPRP, the “shrunken log2 fold change” value is -0.0918.
To RRIRGRPPRLPRPRPRPHLGPRP belongs 0.427; to RRIRRRPPRLPRPRPRPRKMPRP, 0.163.
